Measurements reported in article PMC8222357, “The structure of ORC–Cdc6 on an origin DNA reveals the mechanism of ORC activation by the replication initiator Cdc6” (Nature Communications, 2021).

T1: Orc1, subunit of S. cerevisiae ORC (S. cerevisiae, UniProt P54784 1-914)
T1 construct: Orc1, S. cerevisiae, as the Orc1 chain of m1; Stood in the assay as a subunit of the whole ORC; written on its own for the contacts seen in the structure; source: purified as part of ORC, as described previously with minor modifications
T1 sequence: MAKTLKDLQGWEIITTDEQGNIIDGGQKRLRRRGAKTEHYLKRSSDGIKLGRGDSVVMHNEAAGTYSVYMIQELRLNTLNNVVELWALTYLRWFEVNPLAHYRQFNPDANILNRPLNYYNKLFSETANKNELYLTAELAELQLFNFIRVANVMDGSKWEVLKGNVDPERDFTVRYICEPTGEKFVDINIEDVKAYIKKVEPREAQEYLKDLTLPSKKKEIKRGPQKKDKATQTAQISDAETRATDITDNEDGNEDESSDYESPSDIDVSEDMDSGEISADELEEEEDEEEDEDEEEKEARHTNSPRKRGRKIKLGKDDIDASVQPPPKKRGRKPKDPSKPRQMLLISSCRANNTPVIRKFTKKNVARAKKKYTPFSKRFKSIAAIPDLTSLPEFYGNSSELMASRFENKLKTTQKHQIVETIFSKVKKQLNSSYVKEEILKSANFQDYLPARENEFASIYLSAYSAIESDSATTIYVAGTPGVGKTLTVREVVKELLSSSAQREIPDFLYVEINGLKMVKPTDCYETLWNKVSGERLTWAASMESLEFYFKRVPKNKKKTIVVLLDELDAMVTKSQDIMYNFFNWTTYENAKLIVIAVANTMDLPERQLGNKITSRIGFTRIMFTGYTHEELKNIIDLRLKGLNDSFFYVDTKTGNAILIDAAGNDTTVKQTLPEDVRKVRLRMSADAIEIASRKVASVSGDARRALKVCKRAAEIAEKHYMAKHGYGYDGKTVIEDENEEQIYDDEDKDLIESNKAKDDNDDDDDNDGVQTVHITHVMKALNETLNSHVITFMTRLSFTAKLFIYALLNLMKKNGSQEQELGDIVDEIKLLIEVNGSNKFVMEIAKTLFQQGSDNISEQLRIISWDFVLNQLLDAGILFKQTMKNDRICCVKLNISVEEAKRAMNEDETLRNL

T2: Orc3, subunit of S. cerevisiae ORC (S. cerevisiae, UniProt P54790 1-616)
T2 construct: Orc3, S. cerevisiae, as the Orc3 chain of m1; Stood in the assay as a subunit of the whole ORC; written on its own for the contacts seen in the structure; source: purified as part of ORC, as described previously with minor modifications
T2 sequence: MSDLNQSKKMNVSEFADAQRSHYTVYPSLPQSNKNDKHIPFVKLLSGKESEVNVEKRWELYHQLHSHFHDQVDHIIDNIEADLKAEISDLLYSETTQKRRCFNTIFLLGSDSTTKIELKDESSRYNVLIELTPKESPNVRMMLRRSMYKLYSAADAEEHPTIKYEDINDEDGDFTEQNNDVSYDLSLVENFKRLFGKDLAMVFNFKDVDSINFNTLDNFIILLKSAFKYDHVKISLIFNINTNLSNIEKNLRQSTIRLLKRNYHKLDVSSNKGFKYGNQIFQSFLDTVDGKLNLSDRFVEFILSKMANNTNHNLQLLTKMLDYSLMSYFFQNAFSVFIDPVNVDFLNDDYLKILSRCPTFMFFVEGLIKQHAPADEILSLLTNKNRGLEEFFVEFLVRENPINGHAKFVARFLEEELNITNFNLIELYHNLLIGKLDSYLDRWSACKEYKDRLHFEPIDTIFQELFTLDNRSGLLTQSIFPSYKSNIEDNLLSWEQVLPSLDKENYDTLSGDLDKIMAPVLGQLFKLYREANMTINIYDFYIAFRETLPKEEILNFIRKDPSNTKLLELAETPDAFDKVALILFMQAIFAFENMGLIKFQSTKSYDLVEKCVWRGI

B1: Cdc6 (replication initiator), S. cerevisiae, wild type (natural protein)
chain: MSAIPITPTKRIRRNLFDDAPATPPRPLKRKKLQFTDVTPESSPEKLQFGSQSIFLRTKALLQKSSELVNLNSSDGALPARTAEYEQVMNFLAKAISEHRSDSLYITGPPGTGKTAQLDMIIRQKFQSLPLSLSTPRSKDVLRHTNPNLQNLSWFELPDGRLESVAVTSINCISLGEPSSIFQKIFDSFQDLNGPTLQIKNMQHLQKFLEPYHKKTTFVVVLDEMDRLLHANTSETQSVRTILELFLLAKLPTVSFVLIGMANSLDMKDRFLSRLNLDRGLLPQTIVFQPYTAEQMYEIVIQKMSSLPTIIFQPMAIKFAAKKCAGNTGDLRKLFDVLRGSIEIYELEKRFLLSPTRGSLNSAQVPLTPTTSPVKKSYPEPQGKIGLNYIAKVFSKFVNNNSTRTRIAKLNIQQKLILCTIIQSLKLNSDATIDESFDHYIKAITKTDTLAPLQRNEFLEICTILETCGLVSIKKTKCKGKTKRFVDKIDVDLDMREFYDEMTKISILKPFLH
notes: Cdc6, S. cerevisiae; also called yeast Cdc6; source: purified as described previously, with minor modifications (lysis buffer with 500 mM potassium phosphate)
B2: Orc4, subunit of S. cerevisiae ORC (natural protein)
chain: MTISEARLSPQVNLLPIKRHSNEEVEETAAILKKRTIDNEKCKDSDPGFGSLQRRLLQQLYGTLPTDEKIIFTYLQDCQQEIDRIIKQSIIQKESHSVILVGPRQSYKTYLLDYELSLLQQSYKEQFITIRLNGFIHSEQTAINGIATQLEQQLQKIHGSEEKIDDTSLETISSGSLTEVFEKILLLLDSTTKTRNEDSGEVDRESITKITVVFIFDEIDTFAGPVRQTLLYNLFDMVEHSRVPVCIFGCTTKLNILEYLEKRVKSRFSQRVIYMPQIQNLDDMVDAVRNLLTVRSEISPWVSQWNETLEKELSDPRSNLNRHIRMNFETFRSLPTLKNSIIPLVATSKNFGSLCTAIKSCSFLDIYNKNQLSNNLTGRLQSLSDLELAILISAARVALRAKDGSFNFNLAYAEYEKMIKAINSRIPTVAPTTNVGTGQSTFSIDNTIKLWLKKDVKNVWENLVQLDFFTEKSAVGLRDNATAAFYASNYQFQGTMIPFDLRSYQMQIILQELRRIIPKSNMYYSWTQL
notes: Orc4, S. cerevisiae, as the Orc4 chain of m1; Stood in the assay as a subunit of the whole ORC; written on its own for the contacts seen in the structure; source: purified as part of ORC, as described previously with minor modifications
B3: Orc5, subunit of S. cerevisiae ORC (natural protein)
chain: MNVTTPEVAFREYQTNCLASYISADPDITPSNLILQGYSGTGKTYTLKKYFNANPNLHAVWLEPVELVSWKPLLQAIARTVQYKLKTLYPNIPTTDYDPLQVEEPFLLVKTLHNIFVQYESLQEKTCLFLILDGFDSLQDLDAALFNKYIKLNELLPKDSKINIKFIYTMLETSFLQRYSTHCIPTVMFPRYNVDEVSTILVMSRCGELMEDSCLRKRIIEEQITDCTDDQFQNVAANFIHLIVQAFHSYTGNDIFALNDLIDFKWPKYVSRITKENIFEPLALYKSAIKLFLSTDDNLSENGQGESAITTNRDDLENSQTYDLSIISKYLLIASYICSYLEPRYDASIFSRKTRIIQGRAAYGRRKKKEVNPRYLQPSLFAIERLLAIFQAIFPIQGKAESGSLSALREESLMKANIEVFQNLSELHTLKLIATTMNKNIDYLSPKVRWKVNVPWEIIKEISESVHFNISDYFSDIHE
notes: Orc5, S. cerevisiae, as the Orc5 chain of m1; Stood in the assay as a subunit of the whole ORC; written on its own for the contacts seen in the structure; source: purified as part of ORC, as described previously with minor modifications

Legend:
Experiment in all cases: cryo-EM structure; ORC first bound to 85 bp ARS1 origin dsDNA, then Cdc6 added (about 1 μM ORC:1.25 μM DNA:6.4 μM Cdc6), 5 mM ATPγS, 5 mM DTT, on ice; no cross-linking agent; maps at 3.3 and 3.6 Å
Conditions in all cases: both partners purified
[1] = molecular target: T3, origin recognition complex (ORC; Orc1-6), S. cerevisiae (S. cerevisiae, UniProt P54784 1-914; P32833 1-620; P54790 1-616; P54791 1-529; P50874 1-479; P38826 …)
T3 construct: Orc1, S. cerevisiae, subunit of ORC; BAH domain disordered in the map; Orc2, S. cerevisiae, subunit of ORC; WHD flexible and not visible in the map; Orc3, S. cerevisiae, subunit of ORC; Orc4, S. cerevisiae, subunit of ORC; Orc5, S. cerevisiae, subunit of ORC; Orc6, S. cerevisiae, subunit of ORC; TFIIB-A domain disordered in the map; also called yeast ORC; source: purified as described previously, …
T3 sequence (P32833 whole entry, chain 2 of 2, the tested form may be a part): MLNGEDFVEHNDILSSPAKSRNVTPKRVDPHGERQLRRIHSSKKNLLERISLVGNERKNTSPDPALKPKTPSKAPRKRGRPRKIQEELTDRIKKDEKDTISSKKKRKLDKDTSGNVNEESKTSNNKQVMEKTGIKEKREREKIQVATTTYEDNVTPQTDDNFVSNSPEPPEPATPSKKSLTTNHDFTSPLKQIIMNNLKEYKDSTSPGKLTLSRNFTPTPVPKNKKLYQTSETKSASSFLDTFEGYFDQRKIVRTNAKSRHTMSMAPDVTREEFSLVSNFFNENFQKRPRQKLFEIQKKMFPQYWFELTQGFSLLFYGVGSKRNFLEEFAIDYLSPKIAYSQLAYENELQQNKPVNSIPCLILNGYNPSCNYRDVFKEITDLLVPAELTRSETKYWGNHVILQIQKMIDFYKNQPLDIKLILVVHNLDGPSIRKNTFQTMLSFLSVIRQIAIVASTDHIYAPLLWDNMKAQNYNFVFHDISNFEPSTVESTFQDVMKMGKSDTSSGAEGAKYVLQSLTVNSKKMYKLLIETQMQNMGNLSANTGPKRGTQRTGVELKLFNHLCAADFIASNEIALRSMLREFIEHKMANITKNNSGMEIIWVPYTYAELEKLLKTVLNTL
T3 sequence (P38826 whole entry, chain 6 of 2, the tested form may be a part): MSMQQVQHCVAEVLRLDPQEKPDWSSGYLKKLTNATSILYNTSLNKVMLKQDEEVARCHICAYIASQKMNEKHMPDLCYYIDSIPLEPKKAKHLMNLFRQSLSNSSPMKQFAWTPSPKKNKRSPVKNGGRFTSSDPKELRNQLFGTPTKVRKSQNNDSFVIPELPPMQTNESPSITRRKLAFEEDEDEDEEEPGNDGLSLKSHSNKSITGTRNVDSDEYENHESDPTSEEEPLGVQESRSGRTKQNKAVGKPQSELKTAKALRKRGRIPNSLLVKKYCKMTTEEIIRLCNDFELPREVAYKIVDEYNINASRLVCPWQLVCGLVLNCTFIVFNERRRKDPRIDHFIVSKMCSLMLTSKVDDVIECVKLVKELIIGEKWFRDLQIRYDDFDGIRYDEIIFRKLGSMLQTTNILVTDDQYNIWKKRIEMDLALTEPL

[2] = molecular target: T1, Orc1, subunit of S. cerevisiae ORC
[3] = molecular target: T2, Orc3, subunit of S. cerevisiae ORC
[4] = molecular target: B2

binding result [1] | binding result [2] | binding result [3] | binding result [4] | Binder
binds | binds | – | – | B1
– | binds | – | – | B2
– | – | binds | binds | B3
